Publication PMC5500802

Assays:
[1] = target: GST-ACK GBD W476A (UniProt Q07912); assay: scintillation proximity assay (direct binding); 20 nM GST-ACK variant immobilised on protein A SPA fluoromicrospheres via an anti-GST antibody; varying concentrations of [3H]GTP-Cdc42; background without effector subtracted; apparent Kd from a direct binding isotherm
[2] = target: GST-ACK GBD A451D (UniProt Q07912); assay: as above
[3] = target: GST-ACK GBD wild type, ACK(448-489) (UniProt Q07912); assay: as above
[4] = target: GST-ACK GBD S461A (UniProt Q07912); assay: as above
[5] = target: GST-ACK GBD L487A (UniProt Q07912); assay: as above
[6] = target: GST-ACK GBD L485A (UniProt Q07912); assay: as above
[7] = target: GST-ACK GBD I463A (UniProt Q07912); assay: as above
[8] = target: GST-ACK GBD Q452A (UniProt Q07912); assay: as above
[9] = target: GST-ACK GBD P457A (UniProt Q07912); assay: as above
[10] = target: GST-ACK GBD Δ17 (UniProt Q07912); assay: as above
[11] = target: GST-ACK GBD G468A (UniProt Q07912); assay: as above
[12] = target: GST-ACK GBD H467A (UniProt Q07912); assay: as above
[13] = target: GST-ACK GBD L449A (UniProt Q07912); assay: as above
[14] = target: GST-ACK GBD F462A (UniProt Q07912); assay: as above
[15] = target: GST-ACK GBD H464A/H467A (UniProt Q07912); assay: as above
[16] = target: GST-ACK GBD R481A (UniProt Q07912); assay: as above
[17] = target: GST-ACK GBD S450A (UniProt Q07912); assay: as above
[18] = target: GST-ACK GBD D480A (UniProt Q07912); assay: as above
[19] = target: GST-ACK GBD D469A (UniProt Q07912); assay: as above
[20] = target: GST-ACK GBD S470A (UniProt Q07912); assay: as above
[21] = target: GST-ACK GBD Q459A (UniProt Q07912); assay: as above
[22] = target: GST-ACK GBD S455A (UniProt Q07912); assay: as above
[23] = target: GST-ACK GBD T465A (UniProt Q07912); assay: as above
[24] = target: GST-ACK GBD H464A (UniProt Q07912); assay: as above
[25] = target: GST-ACK GBD wild type, ACK(448-489) (UniProt Q07912); assay: BLI; Octet Red; GST fusion proteins (10 μg/ml) loaded on anti-GST sensors, dipped into a dilution range of Cdc42·GMPPNP; 50 mM Tris–HCl pH 7.5, 150 mM NaCl, 1 mM MgCl2, 0.02% Tween 20, 0.1% BSA, 0.05% sodium azide, 25 °C; GST-alone sensors subtracted
[26] = target: GST-WASP (Wiskott–Aldrich syndrome protein) fusion construct; assay: as above
[27] = target: GST-WASP ΔBR (basic region mutant of WASP); assay: as above
[28] = target: Cdc42 Δ7 Q61L (UniProt P60953); assay: scintillation proximity assay (competition); 30 nM GST-WT ACK GBD immobilised on protein A SPA fluoromicrospheres via an anti-GST antibody, 30 nM [3H]GTP-Cdc42; increasing concentrations of GST-cleaved ACK variant; pure competition model, apparent Kd (Ki)

Cdc42 Δ7 Q61L (from UniProt P60953 1-191) (natural protein)
Kd [1]: 137 nM
Kd [2]: 189 nM
Kd [3]: 44.2 nM
fold increase in Kd over WT [4]: > 22.6 -fold
Kd [5]: 330 nM
Kd [6]: 31.4 nM
Kd [7]: 152 nM
Kd [8]: 44 nM
fold increase in Kd over WT [9]: > 22.6 -fold
fold increase in Kd over WT [10]: > 22.6 -fold
Kd [11]: 67.3 nM
fold increase in Kd over WT [12]: > 22.6 -fold
Kd [13]: 492 nM
fold increase in Kd over WT [14]: > 22.6 -fold
fold increase in Kd over WT [15]: > 22.6 -fold
Kd [16]: 107 nM
Kd [17]: 167 nM
Kd [18]: 164 nM
Kd [19]: 38 nM
Kd [20]: 35.4 nM
Kd [21]: 29.8 nM
Kd [22]: 243 nM
Kd [23]: 85.4 nM
fold increase in Kd over WT [24]: > 22.6 -fold
Kd [25]: 130 nM
kon [25]: 224000 M⁻¹ s⁻¹
Kd [26]: 30 nM
kon [26]: 793000 M⁻¹ s⁻¹
Kd [27]: 220 nM
kon [27]: 360000 M⁻¹ s⁻¹

GLSAQDISQPLQNSFIHTGHGDSDPRHCWGFPDRIDELYLGN (domain or fragment) [ACK GBD wild type, ACK(448-489), cleaved from GST]
Kd [28]: 20 nM

GLSAQDASQPLQNSFIHTGHGDSDPRHCWGFPDRIDELYLGN (domain or fragment) [ACK GBD I454A, cleaved from GST]
Kd [28]: 19700 nM

GLSAQDIAQPLQNSFIHTGHGDSDPRHCWGFPDRIDELYLGN (domain or fragment) [ACK GBD S455A, cleaved from GST]
Kd [28]: 750 nM

GLSAQDISQALQNSFIHTGHGDSDPRHCWGFPDRIDELYLGN (domain or fragment) [ACK GBD P457A, cleaved from GST]
Kd [28]: 3830 nM

GLSAQDISQPLQNAFIHTGHGDSDPRHCWGFPDRIDELYLGN (domain or fragment) [ACK GBD S461A, cleaved from GST]
Kd [28]: 4160 nM

GLSAQDISQPLQNSAIHTGHGDSDPRHCWGFPDRIDELYLGN (domain or fragment) [ACK GBD F462A, cleaved from GST]
Kd [28]: 3460 nM

GLSAQDISQPLQNSFIATGHGDSDPRHCWGFPDRIDELYLGN (domain or fragment) [ACK GBD H464A, cleaved from GST]
Kd [28]: 2510 nM

GLSAQDISQPLQNSFIHTGAGDSDPRHCWGFPDRIDELYLGN (domain or fragment) [ACK GBD H467A, cleaved from GST]
Kd [28]: 1790 nM

GLSAQDISQPLQNSFIHTGHGDSDP (domain or fragment) [ACK GBD Δ17, cleaved from GST]
Kd [28]: 4760 nM
